For data set [1], the target named is hTSH (thyroid stimulating hormone) (Homo sapiens, UniProt P01215;P01222 P01215:25-116,P01222:21-132). Put plainly: dot blot on nitrocellulose, 50-800 nM hTSH, TEM buffer with 0.1% hSA, 0.5 M urea wash. The conditions noted are these: tags: Becton Dickinson, Mr 27,700, 9 IU/mg; label: internally radiolabeled. How it is done:
hTSH was suspended in TEM buffer (300 ml) containing 0.1% hSA (w/v) and applied to pre-wetted nitrocellulose filters (0.45 micron; BioRad) under suction. Gel-purified, internally labeled nucleic acid ligand T-15 (SEQ ID NO: 3) was then applied to the blots in 50 ml of TEM buffer (0.2 pmoles/ml) and filtered gently. Filters were immediately washed three times with 300 ml of 0.5M urea in the same buffer. The blots were dried and analyzed with a phosphorimager and by autoradiography.
The results wherein different concentrations of hTSH (from 800 nM (177 mIU/ml) to 50 nM (11 mIU/ml)) blotted on a nitrocellulose membrane were detected by radiolabeled nucleic acid ligand T-15 are shown in FIG. 4. Very low levels of background binding of RNA to nitrocellulose filters in the absence of hTSH (but with hSA in the buffer) was accomplished by washing blots with 0.5M urea in the binding buffer. This step eliminated most nonspecific binding, yet leaving specific binding of ligand T-15 to hTSH largely unaffected. […] However, with the affinity-selected radiolabeled ligand T-15, the radioactive signal on the blot correlated with the concentration of hTSH used. There is a linear relationship between the radioactive signal and the amount of hTSH up to 100 mIU/ml; the signal saturates above this concentration.

Data set [2] concerns the target hCG (chorionic gonadotropin) (Homo sapiens, UniProt P01215;P0DN86 P01215:25-116,P0DN86:21-165). Put plainly: dot blot of hCG in urine; detectable at 1.9 nM, saturates above 500 nM; higher signal in low salt buffer with 2 mM MgCl2. The conditions noted are these: label: radiolabeled. How it is done:
Test urine (obtained from pregnant individuals) and control urine (obtained from males) samples were pre-filtered through 0.2 mm polysulfone filters (Gelman Sciences) to remove particulate matter. hCG suspended in control urine to various concentrations (300 ml) was blotted onto pre-wetted nitrocellulose filters (from BioRad) under vacuum. Radiolabeled nucleic acid ligand to hCG, H-42 RNA (SEQ ID NO: 4)(100 ml of 1 pmole/ml) was then added to blots and filtered. Blots were immediately washed two times with 300 ml of TEM buffer. The blots were dried and analyzed by autoradiography and phosphorimager (Fuji).
In preliminary studies, anti-hCG antibodies were first applied to nitrocellulose blots to capture hCG and subsequently the radiolabeled RNA was used to detect the hormone. Such anti-hCG antibodies were required only if hCG was suspended in a buffer. However, if hCG in urine was used there was no significant difference in the signal in the presence and absence of antibodies. This may be due to the presence of other proteins in urine that serve as nonspecific carriers, effectively retaining hCG on the membrane. […] The signal saturates at high hCG concentration (>500 nM). Even at 1.9 nM hCG concentration, signal above background level was detected. Compared to control male urine (blots 1–3), the urine from a pregnant […] […]

hTSH (thyroid stimulating hormone), sequence (P01215 25-116, chain 1 of 2): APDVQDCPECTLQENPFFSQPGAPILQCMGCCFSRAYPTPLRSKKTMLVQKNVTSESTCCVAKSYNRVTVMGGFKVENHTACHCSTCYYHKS
hTSH (thyroid stimulating hormone), sequence (P01222 21-132, chain 2 of 2): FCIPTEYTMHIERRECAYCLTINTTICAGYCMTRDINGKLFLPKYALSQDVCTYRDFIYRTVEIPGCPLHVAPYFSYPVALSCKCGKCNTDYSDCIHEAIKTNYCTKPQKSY
hCG (chorionic gonadotropin), sequence (P01215 25-116, chain 1 of 2, other chains not shown): as the sequence (P01215 25-116, chain 1 of 2) above

B1: T-15 (ssRNA)
RNA: GGGAGGACGAUGCGGAUGUUGGCAGCAGGGUCCGACGGCGUAACCUUGCCAGCUGCAGACGACUCGCCCGA
modifications: 2'-NH2 on all C and U
As for B1, the binding result in data set [1] is on record as “binds”.

B2: H-42 (ssRNA)
RNA: GGGAGGACGAUGCGGACAAGGGCCUGAGUGUGGAGGGCACGUGGAGGGGACUGGCCAGACGACUCGCCCGA
modifications: 2'-NH2 pyrimidines (library chemistry)
As to B2, the binding result in data set [2] is given as “binds”.

The values are drawn from patent US5874218, “Method for detecting a target compound in a substance using a nucleic acid ligand” (NeXstar Pharmaceuticals, Inc.).
